# From US20170066817A1
# B1: anti-PrPc mAb-5 (monoclonal antibody Ab-5) (antibody, V domains shown)
# VH: EVQLQQSGPELVKPGASVKMSCKASGYTFTDYYMKWVKQSHGKSLEWIGDINPNNGDTFYNQKFKGKATLTVDKSSNTAYMQLNSLTSEDSAVYYCAKPGRTYWGQGTLVTVSAAKTTAPSVYPLAPVCGGSRP
# VL: DIVLTQSPASLAVSLGQRATISYRASKSVSTSGYSYMHWNQQKPGQPPRLLIYLVSNLESGVPARFSGSGSGTDFTLNIHPVEEEDAATYYCQHIRELTRSEGGPSWK
# Experiments:
# [1] = biological target: GST-PrPc (β1α1) protein (human); experiment: Biacore (SPR), ratio of affinities
# [2] = biological target: human cellular prion protein (human); experiment: cell-based or functional assay
# [3] = biological target: GST-PrPc (β1α1) protein (human); experiment: Biacore (SPR), soluble GST-PrPc (β1α1) at several concentrations
binder,measurement,setting,value
B1,fold affinity against 12F10,[1],5.38 times
same,fold affinity against Ab-3,[1],1.87 times
same,"Migrated cell number, HCT116 cells (transwell, antibody 10 µg/mL, 24 h)",[2],192 cells
same,"Migrated cell number, MDA-MB-231 cells (transwell, antibody 10 µg/mL, 24 h)",[2],695 cells
same,"Migrated cell number, SW480 cells (transwell, antibody 10 µg/mL, 24 h)",[2],111 cells
same,Kd,[3],3.05 nM
